# Source: the DeepSol protein solubility set
# Assay: soluble on expression in E. coli; label from the status in PepcDB or PDB records
row,Sequence,soluble on expression in E. coli
1,MERKALVTGGSRGIGRAIAEALVARGYRVAIASRNPEEAAQSLGAVPLPTDLEKDDPKGLVKRALEALGGLHVLVHAAAVNVRKPALELSYEEWRRVLYLHLDVAFLLAQAAAPHMAEAGWGRVLFIGSVTTFTAGGPVPIPAYTTAKTALLGLTRALAKEWARLGIRVNLLCPGYVETEFTLPLRQNPELYEPITARIPMGRWARPEEIARVAAVLCGDEAEYLTGQAVAVDGGFLAY,soluble
2,MGGGGGGMEQFNAFKSLLKKHYEKTIGFHDKYIKDINRFVFKNNVLLILLENEFARNSLNDNSEIIHLAESLYEGIKSVNFVNEQDFFFNLAKLEENSRDTLYQNSG,soluble
3,MKVNKFITIYKDIAQQIEGGRWKAEEILPSEHELTAQYGTSRETVRKALHMLAQNGYIQKIRGKGSVVLNREKMQFPVSGLVSFKELAQTLGKETKTTVHKFGLEPPSELIQKQLRANLDDDIWEVIRSRKIDGEHVILDKDYFFRKHVPHLTKEICENSIYEYIEGELGLSISYAQKEIVAEPCTDEDRELLDLRGYDHMVVVRNYVFLEDTSLFQYTESRHRLDKFRFVDFARRGK,soluble
4,MNVERWAQALKEEYPRGLLGEREALVSLLVGKGLSHAEAVEVARALEAQGYAHFLPGERPRWFFSSRSLDLKALMRALDQEFPEFVGEGDEEEEALAFLAARLGDREVAREVLEAMRAAGYVERAYSPELARDRLFFRFPEALRLLG,soluble
5,MHEITLCQRALELIEQQAAKHGAKRVTGVWLKIGAFSCVETSSLAFCFDLVCRGSVAEGCKLHLEEQEAECWCETCQQYVTLLTQRVRRCPQCHGDMLQIVADDGLQIRRIEIDQE,soluble
6,MAHHHHHHMFLTFVRHTPPKTPRNVFFPWQNFSIHKSGSFLEKNRLALRVPINLTKFEIREYLRKIYNAKVIKVNTLIKVPERRRNLTDFRFNYYRNGPRYKKAIITLEHEVPDSVKMIQSCKNIGRNPYITKKNVIYGVRSDVKITPTRSQLWQMGECRYSWRLPLTNLLADYKMNLNPDLRIDENLVQLAPDMTKPFMHSGISSQTFKPSSVPEQTFPKVIFFFFQKGDVLA,soluble
7,MGSDKIHHHHHHMVVALQYRTDLLEIHRFTRFESSLAHLGFRHFQPLASLRPWVHRYFHLQVATNLPQSIEQTFYPDGGTSLQFYFPAPSLNTNSDEPKVVFHCGQSLHSHAFVPGIEQMIVRFHPGGAFHLLGIAVQEIQQTSSHTVIEATQLHLPGLNQLLSQLADTNQPMQRIAQLEQWLLQLIKPQLDRGTWSTAGIVQMSLPRLIQPQTRLENFYGQLALSRRQFERRFKQETGLSPAQLQQLNRVKIARDLLSQSPELNLAQVAFDCGFYDQAHLHQHFVRVTQQTPGQYKKRKMSQISNLTQR,not soluble
8,MSLLFYRPLASIQALTFDLDDTLYDNRPVIKQVEEKVTEWLLSEHPITATRPLAWWLAMKRDIARRFPEQCHDVSQWRYLQVQHGLLELGYAQPEAEQAASETLEQVMRWRNQVDVPAETHRVLAQLAAKVPLIAITNGNVQIEKIGLSGYFQTVLRAGPDGRAKPYPDLFAQAAQQLQLEPRSILHVGDHLQTDVLGARQNGFQACWFNDQGQSIRRLAKASVLPDVEIERLSELLLIVNEGHHHHHH,soluble
9,MAEIQFSKGVAETVVPEVRLSKSKNGQSGMAKFYFLEPTILAKESTDDITGMYLIDDEGEIITREVKGKFINGRPTAIEATVILNSQPEWDRFMRFMERYGAENGLGFSKSELEHHHHHH,soluble
10,GPLETDLVAVWDVALSDGVHKIEFEHGTTSGKRVVYVDGKEEIRKEWMFKLVGKETFYVGAAKTKATINIDAISGFAYEYTLEINGKSLKKYMEDRSKTTNTWVLHMDGENFRIVLEKDAMDVWCNGKKLETAGEFVDDGTETHFSIGNHDCYIKAVSSGKRKEGIIHTLIVDNREIPEIAS,soluble
11,MAVAYSIGIDSGSTATKGILLADGVITRRFLVPTPFRPATAITEAWETLREGLETTPFLTLTGYGRQLVDFADKQVTEISCHGLGARFLAPATRAVIDIGGQDSKVIQLDDDGNLCDFLMNDKCAAGTGRFLEVISRTLGTSVEQLDSITENVTPHAITSMCTVFAESEAISLRSAGVAPEAILAGVINAMARRSANFIARLSCEAPILFTGGVSHCQKFARMLESHLRMPVNTHPDAQFAGAIGAAVIGQRVRTRR,soluble
